Laboratory results taken from patent CN111956606A (JIANGSU QUANXIN BIOMEDICAL CO LTD, dated 2020).
One block for each binder: values may come before it.

Assays:
[1] = molecular target: T1, 人白介素23(Human interleukin 23，hIL-23) (human, UniProt Q9NPF7 20-189; P29460 23-328); test: cell-based or functional assay
T1 sequence 1: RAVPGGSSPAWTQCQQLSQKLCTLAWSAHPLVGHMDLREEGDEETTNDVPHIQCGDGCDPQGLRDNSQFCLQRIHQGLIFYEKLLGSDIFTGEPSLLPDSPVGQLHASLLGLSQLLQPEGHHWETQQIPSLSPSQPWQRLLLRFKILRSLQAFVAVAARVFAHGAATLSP
T1 sequence 2: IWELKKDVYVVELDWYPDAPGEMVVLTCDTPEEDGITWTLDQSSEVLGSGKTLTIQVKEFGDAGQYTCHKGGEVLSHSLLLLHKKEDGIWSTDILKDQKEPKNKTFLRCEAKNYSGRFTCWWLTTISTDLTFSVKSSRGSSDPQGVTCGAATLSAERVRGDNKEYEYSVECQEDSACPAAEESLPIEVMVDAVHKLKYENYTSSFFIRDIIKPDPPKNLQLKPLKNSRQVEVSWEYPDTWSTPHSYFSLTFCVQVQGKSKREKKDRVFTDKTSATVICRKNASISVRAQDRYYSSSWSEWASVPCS

[2] = molecular target: T1, 人白介素23(Human interleukin 23，hIL-23); test: SPR, Biacore T200, antibody captured on Protein A chip, IL-23 as analyte, 25℃, 1:1 model

抑制IL-23诱导的人NK细胞释放IFN-γ活性 IC50 [1]: 0.0168 µg/mL
抑制IL-23诱导的小鼠脾脏细胞释放IL-17A活性 IC50 [1]: 0.0135 µg/mL
Kd [2]: 0.063 nM
B1: Guselkumab (antibody, V domains shown)
VH: EVQLVQSGAEVKKPGESLKISCKGSGYSFSNYWIGWVRQMPGKGLEWMGIIDPSNSYTRYSPSFQGQVTISADKSISTAYLQWSSLKASDTAMYYCARWYYKPFDVWGQGTLVTVSS
VL: QSVLTQPPSVSGAPGQRVTISCTGSSSNIGSGYDVHWYQQLPGTAPKLLIYGNSKRPSGVPDRFSGSKSGTSASLAITGLQSEDEADYYCASWTDGLSLVVFGGGTKLTVLG

抑制IL-23诱导的人NK细胞释放IFN-γ活性 IC50 [1]: 0.0104 µg/mL
抑制IL-23诱导的小鼠脾脏细胞释放IL-17A活性 IC50 [1]: 0.0117 µg/mL
Kd [2]: 0.101 nM
koff [2]: 3.5e-05 s⁻¹
kon [2]: 366000 M⁻¹ s⁻¹
B2: 抗人白介素23单克隆抗体QX004N(HZD90-32) (antibody, human IgG1, kappa, V domains shown)
VH: EVQLVESGGGLVQPGGSLRLSCAASGFSLSNHEMSWVRQAPGKGLEWIGIITTSDTTYYATWAKGRFTISRDNSKNTLYLQMNSLRAEDTAVYYCARVDIVLLSVTSRIWGQGTLVTVSS
VL: DVVMTQSPSSLSASVGDRVTITCQASQSVSTYLSWYQQKPGKAPKLLIYGASNLESGVPSRFSGSGSGTDFTLTISSLQPEDFATYYCQSGYVFAGLTFGGGTKVEIKR
抑制IL-23诱导的HEK Blue TM IL-23细胞中STAT3磷酸化活性 IC50 [1]: 0.00321 µg/mL

抑制IL-23诱导的人NK细胞释放IFN-γ活性 IC50 [1]: 0.0111 µg/mL
抑制IL-23诱导的小鼠脾脏细胞释放IL-17A活性 IC50 [1]: 0.00843 µg/mL
Kd [2]: 0.052 nM
koff [2]: 3.7e-05 s⁻¹
kon [2]: 706000 M⁻¹ s⁻¹
B3: Risankizumab (antibody, V domains shown)
VH: QVQLVQSGAEVKKPGSSVKVSCKASGYTFTDQTIHWMRQAPGQGLEWIGYIYPRDDSPKYNENFKGKVTITADKSTSTAYMELSSLRSEDTAVYYCAIPDRSGYAWFIYWGQGTLVTVSS
VL: DIQMTQSPSSLSASVGDRVTITCKASRDVAIAVAWYQQKPGKVPKLLIYWASTRHTGVPSRFSGSGSRTDFTLTISSLQPEDVADYFCHQYSSYPFTFGSGTKLEIKR
抑制IL-23诱导的HEK Blue TM IL-23细胞中STAT3磷酸化活性 IC50 [1]: 0.00351 µg/mL
